17 molecules from patent US20080181886A1 (Genentech, published 2008) can be followed below.

Assay [1] concerns the target human BAFF (human, UniProt Q9Y275 82-285, limits assumed). In words: shotgun scan, phage display. The source says: (§1) Phage from each of the libraries described above were subjected to rounds of binding selection against APRIL, BAFF, or anti-tag antibody (3C8:2F4 Genentech, Inc.) immobilized on 96-well Nunc Maxisorp immunoplates (Sidhu, 2001). BSA-coated wells were used to determine non-specific background binding. Phage eluted from each target were propagated in E. coli XL1-Blue in the presence of M13K07 helper phage; amplified phage were used for selection against the same target in the […] round. […] Enrichment was calculated from the ratio of the phage titer eluted from the target-coated wells to the phage titer eluted from the BSA-coated wells. Individual clones from each library and selection target were then grown in a 96-well format in 400 ul of 2YT medium supplemented with carbenicillin and KO7 helper phage. […] Sequences of acceptable quality were translated and aligned. For APRIL-binding, 71, 40, and 54 sequences were analyzed from libraries one, two and three, respectively. For BAFF-binding, 70, 50, and 53 sequences were analyzed for libraries one, two and three, respectively. For the display selection, a minimum of 47 sequences were analyzed for each library. […] F values describe the effect of mutation on target binding, while accounting for differences in display efficiencies, with values >1 representing deleterious mutations and those <1 representing favorable mutations.

The target of assay [2] is T1, Murine APRIL (mouse, UniProt Q9D777 105-241, limits assumed).
T1 sequence (looked up): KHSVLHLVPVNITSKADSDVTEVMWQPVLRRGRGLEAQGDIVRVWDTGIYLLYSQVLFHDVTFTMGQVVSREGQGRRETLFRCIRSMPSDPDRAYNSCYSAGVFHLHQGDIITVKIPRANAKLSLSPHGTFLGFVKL
In words: shotgun scan, phage display.
Source text: as §1

Chain of human BAFF (Q9Y275 82-285 limits assumed): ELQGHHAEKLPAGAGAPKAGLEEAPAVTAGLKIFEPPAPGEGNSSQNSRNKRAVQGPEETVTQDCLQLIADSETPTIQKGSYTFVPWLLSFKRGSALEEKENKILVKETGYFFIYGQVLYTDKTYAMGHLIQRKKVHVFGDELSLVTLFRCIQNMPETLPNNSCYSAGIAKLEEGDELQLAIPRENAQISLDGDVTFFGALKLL

B1: TACI_d2 L82P (receptor)
chain: SLSCRKEQGKFYDHPLRDCISCASICGQHPKQCAYFCENKLR
notes: phage library variant, format as m9
Turning to B1, in assay [1], the “F (BAFF)” value is more than 61. Also, the “F (APRIL)” value in assay [2] was more than 49.

B2: TACI_d2 N106T (receptor)
chain: SLSCRKEQGKFYDHLLRDCISCASICGQHPKQCAYFCETKLR
notes: as for B1
As for B2, the “F (BAFF)” value in assay [1] is 1.2. Further, the “F (APRIL)” value in assay [2] stood at 1.6.

B3: TACI_d2 N106A (receptor)
chain: SLSCRKEQGKFYDHLLRDCISCASICGQHPKQCAYFCEAKLR
notes: as for B1
As for B3, the “F (BAFF)” value in assay [1] was 0.9. The “F (APRIL)” value in assay [2] turned out to be 1.2.

B4: TACI_d2 L108V (receptor)
chain: SLSCRKEQGKFYDHLLRDCISCASICGQHPKQCAYFCENKVR
notes: as for B1
Take B4: the “F (BAFF)” value in assay [1] was determined as 1.2. The “F (APRIL)” value in assay [2] turned out to be 0.9.

B5: TACI_d2 R72A (receptor)
chain: SLSCAKEQGKFYDHLLRDCISCASICGQHPKQCAYFCENKLR
notes: as for B1
For the molecule B5, the “F (BAFF)” value in assay [1] worked out at 0.4. The “F (APRIL)” value in assay [2] is 1.1.

B6: TACI_d2 R109A (receptor)
chain: SLSCRKEQGKFYDHLLRDCISCASICGQHPKQCAYFCENKLA
notes: as for B1
With B6, in assay [1], the “F (BAFF)” value came to 0.9. In addition, in assay [2], the “F (APRIL)” value came out at 1.5.

B7: TACI_d2 L108A (receptor)
chain: SLSCRKEQGKFYDHLLRDCISCASICGQHPKQCAYFCENKAR
notes: as for B1
For B7, the “F (BAFF)” value in assay [1] came out at 1.2. Further, the “F (APRIL)” value in assay [2] was 1.

B8: TACI_d2 Q75E (receptor)
chain: SLSCRKEEGKFYDHLLRDCISCASICGQHPKQCAYFCENKLR
notes: as for B1
Regarding B8, the “F (BAFF)” value in assay [1] stood at 0.7. The “F (APRIL)” value in assay [2] is 0.7.

B9: TACI_d2 R72G (receptor)
chain: SLSCGKEQGKFYDHLLRDCISCASICGQHPKQCAYFCENKLR
notes: as for B1
With B9, the “F (BAFF)” value in assay [1] is 0.4. For the same molecule, the “F (APRIL)” value in assay [2] was determined as 0.6.

B10: TACI_d2 R109G (receptor)
chain: SLSCRKEQGKFYDHLLRDCISCASICGQHPKQCAYFCENKLG
notes: as for B1
B10: the “F (BAFF)” value in assay [1] is 1.2. Also, the “F (APRIL)” value in assay [2] was 1.2.

B11: TACI_d2 Q99P (receptor)
chain: SLSCRKEQGKFYDHLLRDCISCASICGQHPKPCAYFCENKLR
notes: as for B1
As to B11, the “F (BAFF)” value in assay [1] amounted to 1.8. Besides, the “F (APRIL)” value in assay [2] amounted to 1.5.

B12: TACI_d2 Q75P (receptor)
chain: SLSCRKEPGKFYDHLLRDCISCASICGQHPKQCAYFCENKLR
notes: as for B1
Turning to B12, the “F (BAFF)” value in assay [1] was 0.8. In assay [2], the “F (APRIL)” value was determined as 1.1.

B13: TACI_d2 L83V (receptor)
chain: SLSCRKEQGKFYDHLVRDCISCASICGQHPKQCAYFCENKLR
notes: as for B1
Consider B13, for which the “F (BAFF)” value in assay [1] was 1.6. The “F (APRIL)” value in assay [2] amounted to 4.8.

B14: TACI_d2 Q99E (receptor)
chain: SLSCRKEQGKFYDHLLRDCISCASICGQHPKECAYFCENKLR
notes: as for B1
Take B14: in assay [1], the “F (BAFF)” value came to 0.8. Further, the “F (APRIL)” value in assay [2] was 1.6.

B15: TACI_d2 L82V (receptor)
chain: SLSCRKEQGKFYDHVLRDCISCASICGQHPKQCAYFCENKLR
notes: as for B1
Take B15: the “F (BAFF)” value in assay [1] is more than 25. Also, the “F (APRIL)” value in assay [2] was more than 20.

B16: TACI_d2 Q75A (receptor)
chain: SLSCRKEAGKFYDHLLRDCISCASICGQHPKQCAYFCENKLR
notes: as for B1
For B16, the “F (BAFF)” value in assay [1] was found to be 0.9. Moreover, the “F (APRIL)” value in assay [2] came out at 1.4.

B17: TACI_d2 R72P (receptor)
chain: SLSCPKEQGKFYDHLLRDCISCASICGQHPKQCAYFCENKLR
notes: as for B1
As to B17, the “F (BAFF)” value in assay [1] was found to be 0.6. Further, the “F (APRIL)” value in assay [2] was determined as 0.7.
